2 molecules from US20150315289A1 (published 2015) can be followed below.

In assay [1] the target is T1, linear phage-display peptide WTWNITKEYPQP
T1 peptide: WTWNITKEYPQP
Nature of the assay: degenerate phage library panned and screened as before (hPAM4 and mPAM4).
Description: (§1) The first was a linear peptide library consisting of 12 amino acid sequences and the second was a cyclic peptide consisting of 7 amino acid sequences cyclized by a disulfide bridge.

For assay [2], the target named is T2, linear phage-display peptide WTWNITKAYPLP
T2 peptide: WTWNITKAYPLP
Nature of the assay: phage-displayed peptide screen with hPAM4 and mPAM4.
Description: as §1

In assay [3] the target is T3, cyclic phage-display peptide ACPEWWGTTC (disulfide 2-10).
T3 peptide: ACPEWWGTTC
Nature of the assay: phage-displayed peptide immunoreactivity, against the linear peptide.

Assay [4] has as its target MUC17 (UniProt Q685J3 26-4493). Nature of the assay: immunofluorescence co-localisation on human carcinoma cell lines (data not shown).

Positions of bridges follow the written chain, without caps; N, C: chain ends. No end group written: not given here.

B1: murine PAM4 (mPAM4) (antibody, V domains shown)
VH: EVQLQESGPELVKPGASVKMSCKASGYTFPSYVLHWVKQKPGQGLEWIGYINPYNDGTQYNEKFKGKATLTSDKSSSTAYMELSRLTSEDSAVYYCARGFGGSYGFAYWGQGTLITVSA
VL: DIVMTQSPAIMSASPGEKVTMTCSASSSVSSSYLYWYQQKPGSSPKLWIYSTSNLASGVPARFSGSGSGTSYSLTISSMEAEDAASYFCHQWNRYPYTFGGGTKLEIK
notes: also called MAb PAM4; mAb-PAM4
B1: the binding result in assay [1] and in assay [2] was “binds” in each case. The “immunoreactivity relative to the linear sequence” value in assay [3] was ~10%.

B2: humanized PAM4 (hPAM4) IgG (antibody, V domains shown)
VH: QVQLQQSGAEVKKPGASVKVSCEASGYTFPSYVLHWVKQAPGQGLEWIGYINPYNDGTQYNEKFKGKATLTRDTSINTAYMELSRLRSDDTAVYYCARGFGGSYGFAYWGQGTLVTVSS
VL: DIQLTQSPSSLSASVGDRVTMTCSASSSVSSSYLYWYQQKPGKAPKLWIYSTSNLASGVPARFSGSGSGTDFTLTISSLQPEDSASYFCHQWNRYPYTFGGGTRLEIKR
notes: humanized IgG1 kappa; used HRP-conjugated in some ELISAs and blots; also called clivatuzumab; HRP-hPAM4
On to B2, for which the binding result is recorded as “binds” in assay [1], “binds” in assay [2] and “no binding” in assay [4].
